Assay results reported in US6306832, “Peptide antiestrogen compositions and methods for treating breast cancer” (University of California).

Molecular target: estrogen receptor alpha (ER), purified recombinant (Homo sapiens, UniProt P03372 P03372:1-595)
Assay: EMSA; 60 nM ER, 100 nM estradiol, HEPES pH 7.5, 100 mM KCl, 1 mM EDTA, poly(dI-dC), 4 C; competed by 100x unlabelled ERE; blocked by 0.5 uM pY8/pY10/mY8 peptides, not by conY
Conditions: tags: Panvera (Madison, WI); chain copies: 2 (homodimer, stated); label: 32P 5'-end (polynucleotide kinase)
Experimental: FIG. 6B. Purified human ER (60 nM) was incubated with control solution (CON), a 100-fold molar excess of unlabelled ERE (100 ERE) or with peptides at 250 nM or 500 nM. ER was incubated with peptides for 15 min at 4° C. followed by addition of 100 nM estradiol-17β and ^32P-ERE. Peptides included phosphotyrosyl-octapeptide (pY8), control non-phosphorylated octapeptide (conY), malonyltyrosyl-octapeptide(mY8), phosphotyrosine amino acid alone (pY), as an additional control, and a phosphotyrosyl-decapeptide, N-Val-Pro-Leu-pTyr-Asp-Leu-Leu-Leu-Glu-Met-C (pYl 0) (SEQ ID NO:3). Although not shown, the effect of conY at 500 nM was the same as that shown at a concentration of 250 nM.
Interaction of ER with nuclear ERE is prerequisite for activation of transcription. To assess the specific binding of ER with ERE, purified recombinant human ER from MCF-7 breast cancer cells were used. A double-stranded 27-bp probe (5'-[…]-3') (SEQ ID NO:12) encoding the Xenopus vitellogenin A_2 ERE was ^32P-end-labeled with polynucleotide kinase. Gel mobility shift assays for the human ER were performed as described (Arnold et al., 1995a; Arnold and Notides, 1995; Arnold et al., 1995b). […]

Sequence of estrogen receptor alpha (ER), purified recombinant (P03372 whole entry, one chain of several): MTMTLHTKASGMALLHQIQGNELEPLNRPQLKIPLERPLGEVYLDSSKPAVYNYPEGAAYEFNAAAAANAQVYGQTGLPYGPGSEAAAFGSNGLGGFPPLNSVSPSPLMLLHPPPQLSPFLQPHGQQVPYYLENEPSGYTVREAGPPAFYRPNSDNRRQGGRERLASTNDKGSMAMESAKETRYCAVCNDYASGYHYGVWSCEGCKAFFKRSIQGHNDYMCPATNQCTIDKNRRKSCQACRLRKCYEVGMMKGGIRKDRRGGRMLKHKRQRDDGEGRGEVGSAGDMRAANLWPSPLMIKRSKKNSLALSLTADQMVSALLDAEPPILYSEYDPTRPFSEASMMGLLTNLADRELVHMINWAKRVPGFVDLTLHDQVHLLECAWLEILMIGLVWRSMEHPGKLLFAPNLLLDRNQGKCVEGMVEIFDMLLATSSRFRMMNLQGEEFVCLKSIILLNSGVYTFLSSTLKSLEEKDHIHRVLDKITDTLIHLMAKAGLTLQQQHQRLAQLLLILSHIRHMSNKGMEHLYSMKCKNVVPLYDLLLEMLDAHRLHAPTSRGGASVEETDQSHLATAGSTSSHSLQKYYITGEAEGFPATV

B1: vitellogenin A2 ERE 27-bp probe (dsDNA)
DNA 1: GATCCTAGAGGTCACAGTGACCTACGA
DNA 2: TCGTAGGTCACTGTGACCTCTAGGATC
Question: Does B1 bind?
Answer: Result: binds
